# Measurements published in patent US20130156781A1 (GOVT OF THE UNITED STATES OF AMERICA H H N I H OFFICE OF …, published 2013).
# T1: Recombinant human rTRAIL receptor 1 (DR4), extracellular part, amino acids 25-239 (human, UniProt O00220 25-239)
# T1 construct: also called rDR4; recombinant DR4
# T1 sequence: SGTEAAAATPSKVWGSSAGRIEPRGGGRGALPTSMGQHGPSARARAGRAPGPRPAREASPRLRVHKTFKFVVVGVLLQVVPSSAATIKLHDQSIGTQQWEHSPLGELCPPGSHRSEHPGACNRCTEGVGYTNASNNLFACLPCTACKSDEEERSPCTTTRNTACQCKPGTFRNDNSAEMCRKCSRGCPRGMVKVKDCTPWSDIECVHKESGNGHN
# Tests used:
# DR5 = molecular target: T2, DR5 (UniProt O14763 56-182, limits assumed); assay: ELISA
# T2 construct: also called TRAIL-R2
# [1] = molecular target: T1, Recombinant human rTRAIL receptor 1 …; assay: ELISA, DR4 coated at 50 ng/well, IgG1 detected with anti-human Fc-HRP
# Method: To testing binding of recombinant antibodies to DR4 in vitro, DR4 protein was coated onto half-area ELISA plate at 50 ng/well. After blocking with MPBS, different dilutions of antibodies were incubated with coated wells. For detection of binding antibodies, secondary antibody goat anti-Flag tag-HRP and goat anti-human Fc-HRP (both used at 1:1000) were used to detect Fab or IgG. The ELISA signal was developed with substrate ABTS, and read under wavelength 405 nm. […] The mixture was then added to wells for ELISA.
Binder,binding result (DR5),EC50 [1] [nM]
"m922 IgG1 (antibody, V domains shown, also called IgG m922; DR4 m922 IgG) VH: QVQLQQSGPGLVKPSQTLSLTCAISGDSVSSNSAAWNWIRQSPSRGLEWLGRTYYRSKWYNDYAVSVKSRITINPDTSKNQFSLQLNSVTPEDTAVYYCARETVAVDAFDIWGQGTMVTVSS VL: not shown",no binding (tested: 1000 nM),~10
"m921 IgG1 (antibody, V domains shown, also called IgG m921; DR4 IgG m921) VH: QVQLQQSGPGLVKPSQTLSLTCAISGDSVSSNSAAWNWIRQSPSRGLEWLGRTYYRSKWYNDYAVSVKGRITINPDTSKNQFSLQLNSVTPEDTAVYYCARDLGVAAADSYYYYGMDVWGQGTTVTVSS VL: QPVLTQPPSASATPGQRVTISCSGSSSNIGSNTLDWFQQLPGTAPKLLIFDTNRRPSGVPDRFSGSKSGTSASLAISGLQAEDEAVYFCATWDNSLNGAVFGGGTKLSVPR",no binding (tested: 1000 nM),~10
